Experimental data taken from IntAct's records for PubMed 11743162.

B1: Protein BZZ1 (Saccharomyces cerevisiae), P38822 (parent)
chain: MSADLSIGNEIKDSFKETHKWVQNNLKWLKDIEQFYRERAKLEKDYSERLSRLSAEYFNKKSSTSVPISVGDTPTTTPGSIEAAGVVAWNEILSQTDMISKDHDQLSTDFENHVANQLSGLFTKLDMTLSKINGFNNDMVNKKDNIYHELEKAKKDYDEACSTMEMARNRYTKASNDRNKKKLDEKEMEMNKCKNEYLIKINQANRTKDKYYFQDVPEVLDLLQDVNEAKTLFLNDLWLKAASVENDLGANVSKRLQAANSVVKQNKPSLNTAIFIKHNLKNWKEPQDFVYKPSPVWHDDEKFAVPSSLEVEDLRIKLAKAENDYNSLQDKTQNELSKLSTLNKIKHEMKTNEDNINATKFYDTLKEYLNVVSPFTSHETLKLQAEVQIESIQNNVPEEYDLSTDNIDLSKTKKKSGIFSKFKHNILNVDSKPSSGGSTGNGNGGPLHITSLFNTSRRTRLGSAPNNAGEDSDNNSIRTTSTNNTKKTTQNSSDDGKNKVLYAYVQKDDDEITITPGDKISLVARDTGSGWTKINNDTTGETGLVPTTYIRISSAATVKANDRGPAPEVPPPRRSTLPVRTMEAIYAYEAQGDDEISIDPGDIITVIRGDDGSGWTYGECDGLKGLFPTSYCK
partner: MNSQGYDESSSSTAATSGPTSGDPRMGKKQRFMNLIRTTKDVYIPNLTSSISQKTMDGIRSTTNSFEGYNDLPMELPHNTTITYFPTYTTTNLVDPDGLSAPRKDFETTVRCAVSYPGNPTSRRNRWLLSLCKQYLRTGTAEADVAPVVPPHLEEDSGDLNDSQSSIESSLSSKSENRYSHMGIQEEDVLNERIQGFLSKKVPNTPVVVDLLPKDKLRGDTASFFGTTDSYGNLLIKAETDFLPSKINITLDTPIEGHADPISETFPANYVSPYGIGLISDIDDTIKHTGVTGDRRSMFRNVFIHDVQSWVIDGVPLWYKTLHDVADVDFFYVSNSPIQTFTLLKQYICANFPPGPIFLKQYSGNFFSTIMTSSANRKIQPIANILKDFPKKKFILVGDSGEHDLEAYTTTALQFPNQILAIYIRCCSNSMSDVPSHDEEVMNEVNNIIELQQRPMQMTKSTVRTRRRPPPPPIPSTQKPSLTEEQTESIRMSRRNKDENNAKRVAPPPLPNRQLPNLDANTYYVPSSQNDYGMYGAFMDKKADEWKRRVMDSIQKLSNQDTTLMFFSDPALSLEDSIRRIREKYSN
B2: High osmolarity signaling protein SHO1 (Saccharomyces cerevisiae), P40073 (parent)
chain: MSISSKIRPTPRKPSRMATDHSFKMKKFYADPFAISSISLAIVSWVIAIGGSISSASTNESFPRFTWWGIVYQFLIICSLMLFYCFDLVDHYRIFITTSIAVAFVYNTNSATNLVYADGPKKAAASAGVILLSIINLIWILYYGGDNASPTNRWIDSFSIKGIRPSPLENSLHRARRRGNRNTTPYQNNVYNDAIRDSGYATQFDGYPQQQPSHTNYVSSTALAGFENTQPNTSEAVNLHLNTLQQRINSASNAKETNDNSNNQTNTNIGNTFDTDFSNGNTETTMGDTLGLYSDIGDDNFIYKAKALYPYDADDDDAYEISFEQNEILQVSDIEGRWWKARRANGETGIIPSNYVQLIDGPEEMHR
B3: Protein BZZ1 (Saccharomyces cerevisiae), P38822 (parent)
chain: B1 chain

Variants of: B1
Conditions: with app1_yeast APP1, P53933

effect of a mutation on the interaction | Variant
decreasing interaction | W531S;W615S

Variants of: B2
Conditions: with las17_yeast LAS17, Q12446
Target sequence in this assay (Q12446 whole entry): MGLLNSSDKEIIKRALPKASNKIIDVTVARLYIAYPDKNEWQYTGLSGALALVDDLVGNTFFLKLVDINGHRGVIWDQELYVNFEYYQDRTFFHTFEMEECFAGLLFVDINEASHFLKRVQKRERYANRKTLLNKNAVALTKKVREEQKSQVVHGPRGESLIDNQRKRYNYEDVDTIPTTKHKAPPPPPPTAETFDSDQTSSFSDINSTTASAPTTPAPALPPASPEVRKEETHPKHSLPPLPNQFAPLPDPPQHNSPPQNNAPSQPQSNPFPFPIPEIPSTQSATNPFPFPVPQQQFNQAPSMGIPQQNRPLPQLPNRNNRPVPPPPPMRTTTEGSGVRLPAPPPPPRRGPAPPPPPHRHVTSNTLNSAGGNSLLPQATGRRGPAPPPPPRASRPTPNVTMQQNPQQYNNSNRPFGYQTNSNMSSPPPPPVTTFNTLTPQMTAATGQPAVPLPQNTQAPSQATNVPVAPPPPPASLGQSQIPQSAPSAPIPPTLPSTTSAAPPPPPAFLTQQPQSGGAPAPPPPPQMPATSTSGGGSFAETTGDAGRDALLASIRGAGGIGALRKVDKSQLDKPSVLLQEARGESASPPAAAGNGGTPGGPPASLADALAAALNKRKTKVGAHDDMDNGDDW

effect of a mutation on the interaction | Variant
decreasing interaction | P352A

Variants of: B3
Conditions: with las17_yeast LAS17, Q12446
Target sequence in this assay (Q12446 whole entry): as above

effect of a mutation on the interaction | Variant
decreasing interaction | W531S;W615S
decreasing interaction | W531S
decreasing interaction | W615S
